Results taken from patent publication US7772181B2, “Personal care compositions comprising modified variant Bowman Birk Protease Inhibitors” (Danisco US Inc., priority 2008, dated 2010).
Residue numbers refer to the chain shown, from its start. In names and notes the source's numbering stands. Values belong to the molecule of their own block, whether it stands above or below them.

How the values were obtained:
[1] = target: T1, VegF (UniProt P15692); test: BioVeris electrochemiluminescence competition binding assay, VEGF; settings: for IC50: Target protein VEGF, competition assay, concentration reducing BioVeris signal by one half, read-out: BioVeris Binding (apparent IC50)
T1 sequence (P15692 207-395): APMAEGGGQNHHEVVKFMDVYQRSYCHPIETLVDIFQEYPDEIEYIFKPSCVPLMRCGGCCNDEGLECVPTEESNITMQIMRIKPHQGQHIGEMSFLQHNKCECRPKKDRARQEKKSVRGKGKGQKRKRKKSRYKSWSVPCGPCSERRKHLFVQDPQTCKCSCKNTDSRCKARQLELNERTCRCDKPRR
Experimental: Briefly, after cleavage, the pH of the cleaved sample was adjusted to 5.5, the sample was then loaded onto the column (equilibrated with 25 mM MES pH 5.5). The free 2BBIck81 was washed through the column using 25 mM sodium acetate pH 5.0 while the BCE103 catalytic core remained bound to the resin. The 2BBIck81 fraction was concentrated by ultrafiltration and analyzed using an electrochemiluminescence (ECL) based binding assay (BioVeris). The Anti-VegF antibody (Santa Cruz) and VegF (PeproTech) were labeled with the electrochemiluminescent dye and biotin, respectively, as described by the manufacturer (BioVeris). All materials were in Dulbecco's PBS (Mediatech) supplemented with 0.1% TWEEN®-80. An initial dilution series of Anti-VegF antibody (125, 250 and 500 ng/ml) and VegF (100, 150, 200 and 250 ng/ml) were tested in the binding assay to determine the concentrations of each that would give a robust ECL signal.
For testing 2BBIck81 binding, 50 μL of 500 ng/ml ECL labeled Anti-VegF antibody, 50 μL of 250 ng/ml biotinylated VegF and 100 μL 2BBIck81 (series of 12.5, 15, 31.25, 62.5, 125, 250 or 500 ng/ml) were incubated at room temperature for 2 h with shaking. Then, 50 μL of 0.2 mg/ml streptavidin coated beads were added and the reaction was incubated at room temperature for 30 minutes. The ECL signal was measured using a BioVeris M8/384 Analyzer as described by the manufacturer (BioVeris).
The resulting vectors were used to transform B. subtilis BG6006 host cells. Cultures were grown in 500 ml of MBD medium and the BBI species were purified essentially as described above and by Vogtentanz et al., 2007 (Protein Expr Purif 55:40-52 [2007]). BioVeris binding assays were performed essentially as outlined in Example 5 and by the manufacturer. Binding of the modified variant BBIs to their respective target proteins was measured using a BioVeris® binding assay, which is a competition assay that determines the binding of the modified variant BBIs to its target protein (e.g. VEGF, FGF5, TGFβ and TNFα) in the presence or absence of a labeled competitor. The competitor can be a labeled monoclonal antibody raised against the target protein or a labeled native receptor of the target protein. The electrochemiluminescent binding assays were performed essentially as described in Example 5. The apparent IC50s were determined from binding data by determining the concentration of the BBI species needed to reduce the BioVeris signal by one half. BBI scaffolds without the target binding peptide in the chymotrypsin inhibitory loop were used as negative controls.

[2] = target: T2, bovine pancreatic trypsin (Bos taurus, UniProt P00760); test: Purification process yield of octuple variants (trypsin inhibition); format: biochemical
T2 construct: purchased Worthington (Worthington Biochemical Corp.)
T2 sequence (P00760 24-246): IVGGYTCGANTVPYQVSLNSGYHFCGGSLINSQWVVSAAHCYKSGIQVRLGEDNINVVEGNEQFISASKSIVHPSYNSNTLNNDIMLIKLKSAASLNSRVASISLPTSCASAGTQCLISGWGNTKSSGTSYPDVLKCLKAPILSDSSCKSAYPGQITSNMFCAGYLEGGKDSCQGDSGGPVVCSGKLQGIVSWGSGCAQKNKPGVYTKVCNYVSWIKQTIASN
Experimental: The best octuple variants selected in the shake flask screen were tested in the purification process essentially as described above, and including the following changes: 1) after growth, the culture was two fold diluted in glycine buffer (125 mM final concentration and pH adjusted to 9.0) instead of CHES buffer; 2) samples were activated with 2 mM 2-mercaptoethanol only (no sodium sulfite was added; 3) the acid precipitated fusion protein was resuspended in 100 ml of 125 mM glycine (rather than 350 ml of 40 mM glycine); and 4) the pellet collected after the acid/heat treatment was washed with 10 ml water, filtered, and this “washed pellet” filtrate was combined with the original filtrate. The final filtrates were concentrated and trimmed with Glu-BL as described above

[3] = target: T2, bovine pancreatic trypsin; test: BBIt-AV:BCE activity ratio, microtiter plate screens (primary, quadruplicate secondary); format: biochemical; settings: single substitution in BBIt-AV, in the presence of reducing agent
Experimental: The cultures in each master plate were thawed and a pin replicator was used to inoculate a new sterile microtiter plate containing 150 μl of Luria broth with 5 μg/ml chloramphenicol in each well. The plates were grown for ˜10 hrs in a humidified and aerated box as described above. For controls, the cultures in two wells were replaced with BBI and BBI-AV cultures that had been grown concurrently in 15 ml culture tubes (5 ml of Luria broth with 5 μg/ml chloramphenicol). After the cultures were grown, the plate was used to inoculate two duplicate 96-well filter plates (Millipore, MSGV2210) containing 150 μl of MBD medium (Vogtentanz et al., 2007) with 5 μg/ml chloramphenicol in each well by using a pin replicator. The duplicate plates were grown for ˜14 hours (as above, with plastic spacers placed between the stacked plates to allow for efficient air flow around the plates) and then 2-mecaptoethanol was added to each well in one of the plates to a final concentration of 2 mM. The plates were then grown for an additional ˜46 hours. The 96-well filter plates containing the culture broth (with or without added 2-mecaptoethanol) were then assayed for BBI and BCE activity.
Libraries were analyzed using dilutions of cultures grown in 96-well plates. Typically, the culture broth from each well was diluted (200 fold) in Assay Buffer (100 mM Tris pH 8.6, 0.005% Tween 80) and transferred to a second microtiter plate (CoStar 9017, Corning, Inc., Corning, N.Y.). Then, 20 μl of the diluted samples were transferred to a third microtiter plate. A standard curve was created by adding 20, 10, 5 or 2.5 μl of the diluted sBBI (SEQ ID NO:13) control culture to empty wells. Then, 80 μL of 50 ng/ml trypsin (bovine pancreatic trypsin, Worthington Biochemical Corp., Lakewood, N.J.) (prepared from a 1 mg/mL stock solution diluted into Assay Buffer) was added to each well of the plate. The reactions were mixed and incubated 15 min at room temperature. After the incubation, 100 μL of 0.5 mg/ml trypsin substrate (succinyl-Ala-Ala-Pro-Arg-para-nitroanilide, Bachem Bioscience, Inc., King of Prussia, Pa.), diluted in Assay Buffer from a 100 mg/ml solution in DMSO, was added to each well, mixed, and the absorbance at 405 nm was monitored for 15 min, with 1 time point recorded every 12 sec using a Spectra Max 250 (Molecular Devices). The data points were used to determine the rate for each reaction. The standard curve was generated by plotting the reaction rate versus the BBI volume and was fitted to a four-parameter equation. All data fitting was done using software supplied by the manufacturer (Molecular Devices Corp., Sunnyvale, Calif.). The activity of each BBIt-AV variant was calculated from the standard curve. Thus, the activities of all modified variant proteins were determined relative to the activity in the sBBI control (BBI-WT) culture.
The concentration of BCE was determined by an activity assay using purified BCE as a standard as described above and by (Vogtentanz et al. 2007). For the analysis of libraries grown in 96-well microtiter plates, 20 μl of culture broth were transferred to each well of a new microtiter plate. A standard curve was created by adding 20, 10, 5 or 2.5 μl of the diluted BBI-WT control culture to these empty wells. Then, 180 μl of the BCE substrate (0.25 μg/ml in Assay Buffer), 4-nitrophenyl β-D-cellobioside (Sigma, St. Louis, Mo.), was added to the plate. The plate was mixed and the absorbance at 405 nm monitored for 15 min, with 1 time point recorded every 12 s using a Spectra Max 250 (Molecular Devices Corp., Sunnyvale, Calif.). The data points were used to determine the rate for each reaction. The standard curve was generated by plotting rate versus culture volume and was fit to a quadratic curve. The BCE concentration in each variant culture was determined relative to the standard control culture. […]

[4] = target: T2, bovine pancreatic trypsin; test: Shake flask screen: trypsin inhibition after growth, 2-mercaptoethanol activation and acid/heat treatment; format: biochemical; settings: single substitutions in BBIt-AV
Experimental: To increase expression, the gene copy of the selected clones was amplified by sequentially streaking colonies on Luria agar plates with 25 μg/ml chloramphenicol until the growth rate was similar to growth on Luria agar plates without chloramphenicol. Cultures of the selected variants and controls were grown in 3 ml Luria broth with 25 μg/ml chloramphenicol in 15 ml tubes for ˜10 h. These cultures (30 μl) were then used to inoculate 30 ml of MBD medium in 250 ml baffled shake flasks and grown at 37° C. and 225 rpm for ˜60 h.
For selection of the variants with the best yields, the culture broths were processed as follows. The broth was first activated by mixing 20 ml of broth with 20 ml of 0.25 M glycine buffer (pH 9.3) and the pH was adjusted to 9.0 with 50% NaOH. Then, 2-mercaptoethanol was added to the diluted cultures to a final concentration of 2 mM and the cultures were incubated overnight at room temperature with gentle shaking. The BBIt-AV moiety was then cleaved from the fusion protein by acid/heat treatment, which was accomplished by first adjusting the pH of the activated broth to pH 1.9-2.0 with sulfuric acid, and followed by incubation at 60° C. for 16 hours, with shaking. The BBIt-AV-BCE fusion protein and the BCE catalytic domain are not soluble at pH 2, whereas the free BBI species is soluble. After the cleavage reaction, the insoluble material was removed by centrifugation (5 min. at 3,000 rpm) and the supernatant was analyzed for trypsin inhibitory activity as described above. The BBI activity was also determined for the starting material and for the samples taken after activation. The BCE activity of the starting material was also determined as described above. The BBIt-AV:BCE activity ratios were then calculated for each step in process. The modified BBIt-AVs produced at the highest yields following the acid/heat treatment were selected for further study.

B1: BBIt-AV of SEQ ID NO: 640 (protein)
chain: DPDDESSKPCCDQCICTKSNPPQCRCRDARPNACHSACKSCACKYYLYWWCKCTDITDFCYEPCKPSE
modifications: synthetic BBIt-VEGK
IC50 [1]: 2 to 10 µM

B3: BBIt-AV of SEQ ID NO: 641 (protein)
chain: B1 chain with K44T, Y45L, Y46W, L47K, Y48S, W49Y
modifications: synthetic BBIt-VEGT
IC50 [1]: 2 to 10 µM

B7: BBIt-AV: truncated BBI-AV lacking the 5 C-terminal amino acids, unmodified variant, SEQ ID NO:187 (protein)
chain: DDESSKPCCDQCACTKSNPPQCRCSDMRLNSCHSACKSCACYNLYGWTCFCVDITDFCYEPCKPSE
modifications: synthetic BBIt-AV sequence
binding to VEGF compared with full-length (untruncated) BBI-AV ([1]; labeled monoclonal antibody against VEGF as competitor): bind better than the full-length molecule

B8: V52L: BBIt-AV (SEQ ID NO:187) with single substitution V52L (protein)
chain: B7 chain with V52L
modifications: synthetic BBIt-AV sequence
relative activity of the amino acid substitution (BBI:BCE activity ratio vs BBIt-AV), amino acid present in BBIsb3-AV [3]: L (+)
activation level (BBIt-AV:BCE activity ratio after reducing agent) [4]: activate to similar levels

Continued, in another order:

IC50 [1]: 2 to 10 µM
B2: BBIt-AV of SEQ ID NO: 642 (protein)
chain: B1 chain with Y46D
modifications: synthetic BBIt-VEGKD

yield relative to wild-type sBBI [2]: better than the wild-type sBBI
B4: QQ8: octuple modified variant BBPI, SEQ ID NO:628 (protein)
chain: DPDDESSKPCCDQCICTKSNPPQCRCKDARRNECHSACKSCKCYNLYGWTCQCQDITDFCYEPCKPSE
modifications: synthetic BBPI variant
purification yield relative to quintuple variant (SEQ ID NO:601) [2]: greater than that of the quintuple modified variant

yield relative to wild-type sBBI [2]: better than the wild-type sBBI
B5: KT8: octuple modified variant BBPI, SEQ ID NO:627 (protein)
chain: B4 chain with K27R, R31P, E33A, K42H, Q52K, Q54T
modifications: synthetic BBPI variant
purification yield relative to quintuple variant (SEQ ID NO:601) [2]: greater than that of the quintuple modified variant

yield relative to wild-type sBBI [2]: better than the wild-type sBBI
B6: RL8: octuple modified variant BBPI, SEQ ID NO:630 (protein)
chain: B4 chain with E33A, K42H, Q52R, Q54L
modifications: synthetic BBPI variant
